Measurements: the supplement of paper PMC12042874
± gives the uncertainty stated by the source.

Test: amyloid nucleation score (Sup35N fusion, yeast selection) (log enrichment); library NNK3; higher = more nucleation; inactive = no reads after selection
In short: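 Using DiMSum, nucleation scores were taken as the log enrichment of output over input reads, centred on the mode score of non-aggregating sequences. The input and output reads came from Illumina sequencing of plasmid inserts, with sequences under 100 input reads excluded. The yeast were psi-negative, expressed Sup35N fused to peptides of 20 random codons, were induced with 100 μM copper sulfate for 24 hours, and were grown 7 days at 30°C on medium lacking adenine and uracil.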

Question: For IVKVLNGFKTRVSSVCVTNG, which amyloid nucleation score is on record?
Answer: Its amyloid nucleation score is “inactive”.

Question: Which amyloid nucleation score does the source give for VSSKDGLFCCL here?
Answer: The amyloid nucleation score was 0.209 ± 0.66.

Question: With RVIIRKCDYFG as the substance, how does the amyloid nucleation score read?
Answer: The amyloid nucleation score was “inactive”.

Question: Which amyloid nucleation score does the source give for WLVKGPVCKGSAS here?
Answer: The amyloid nucleation score was -0.116 ± 1.1.

Question: For GHSGKVVL, which amyloid nucleation score is on record?
Answer: Its amyloid nucleation score is “inactive”.

Question: Which amyloid nucleation score does the source give for KHSVSLECRIRSAGDTVGWF here?
Answer: The amyloid nucleation score was “inactive”.

Question: With FNFLVMILGITLPNNITFEH as the substance, how does the amyloid nucleation score read?
Answer: Its amyloid nucleation score is 0.279 ± 0.17.

Question: Which amyloid nucleation score does the source give for FMFASQLMRFFHSWTVSRSS here?
Answer: The amyloid nucleation score was “inactive”.

Question: Which amyloid nucleation score does the source give for STLLRDEML here?
Answer: The amyloid nucleation score was “inactive”.

Question: For GGARMRFDQFMRHRATLASV, which amyloid nucleation score is on record?
Answer: Its amyloid nucleation score is “inactive”.

Question: Which amyloid nucleation score does the source give for IVVANMWLLKKNYLRMELFA here?
Answer: The amyloid nucleation score was “inactive”.

Question: For CQSSDFTEFVRKVKRPPQAC, which amyloid nucleation score is on record?
Answer: Its amyloid nucleation score is “inactive”.

Question: With GCVMVKSSLMFSLLR as the substance, how does the amyloid nucleation score read?
Answer: The amyloid nucleation score was -0.883 ± 1.2.

Question: Which amyloid nucleation score does the source give for VACHRS here?
Answer: Its amyloid nucleation score is “inactive”.

Question: Which amyloid nucleation score does the source give for STQCFDELMYA here?
Answer: Its amyloid nucleation score is “inactive”.

Question: Which amyloid nucleation score does the source give for WCASMRNVCYFVVFMESKLS here?
Answer: The amyloid nucleation score was 0.294 ± 0.44.

Question: For FLAYGWWHYKWSGNDTLHSF, which amyloid nucleation score is on record?
Answer: Its amyloid nucleation score is “inactive”.

Question: Which amyloid nucleation score does the source give for VLRSANCCCGFD here?
Answer: Its amyloid nucleation score is “inactive”.

Question: With DFTDYMPIMYTLHRVVIQMY as the substance, how does the amyloid nucleation score read?
Answer: Its amyloid nucleation score is “inactive”.

Question: Which amyloid nucleation score does the source give for PCSSLHCYMWYYVGANCHNL here?
Answer: Its amyloid nucleation score is “inactive”.

Question: With TWLFFRNHTQAFCSYLAHWG as the substance, how does the amyloid nucleation score read?
Answer: The amyloid nucleation score was “inactive”.

Question: Which amyloid nucleation score does the source give for LRGKDN here?
Answer: The amyloid nucleation score was “inactive”.

Question: For APLYTANAMHSRCILSWVFL, which amyloid nucleation score is on record?
Answer: The amyloid nucleation score was 2.25 ± 0.082.

Question: For RLSLDRRNVRPDDMVHASGG, which amyloid nucleation score is on record?
Answer: Its amyloid nucleation score is “inactive”.

Question: Which amyloid nucleation score does the source give for VTVMT here?
Answer: Its amyloid nucleation score is “inactive”.

Question: With VITVSVTHNNANFFQMTDGM as the substance, how does the amyloid nucleation score read?
Answer: Its amyloid nucleation score is 2.88 ± 0.055.

Question: With ESDITICS as the substance, how does the amyloid nucleation score read?
Answer: The amyloid nucleation score was “inactive”.

Question: For FCFDEEDVLRTGCNGDSYPG, which amyloid nucleation score is on record?
Answer: Its amyloid nucleation score is “inactive”.

Question: Which amyloid nucleation score does the source give for KYGFAVRPFDTGSRMSHFCW here?
Answer: Its amyloid nucleation score is “inactive”.

Question: Which amyloid nucleation score does the source give for MEFYVYTMDKRCSRMFSWHS here?
Answer: Its amyloid nucleation score is “inactive”.

Question: Which amyloid nucleation score does the source give for MRARLANKQGMGPRTRVASV here?
Answer: The amyloid nucleation score was “inactive”.

Question: With MRCSDGPPKWNHD as the substance, how does the amyloid nucleation score read?
Answer: Its amyloid nucleation score is -0.277 ± 0.88.

Question: Which amyloid nucleation score does the source give for TLLFSIYCIFLNPSVQRRFE here?
Answer: The amyloid nucleation score was -0.028 ± 0.43.

Question: With WILSYLDNCARSRQ as the substance, how does the amyloid nucleation score read?
Answer: The amyloid nucleation score was “inactive”.

Question: For RFWFMDFFSH, which amyloid nucleation score is on record?
Answer: The amyloid nucleation score was 1.89 ± 0.076.

Question: Which amyloid nucleation score does the source give for FYTFYSHLNELLHL here?
Answer: Its amyloid nucleation score is -0.009 ± 0.66.

Question: For NPDLVFWFKYLWYDGSCQ, which amyloid nucleation score is on record?
Answer: Its amyloid nucleation score is “inactive”.

Question: For NLNYWAFDYADKLIEHSCVR, which amyloid nucleation score is on record?
Answer: The amyloid nucleation score was “inactive”.

Question: For VMLRMDARQWHSLATVTVVP, which amyloid nucleation score is on record?
Answer: Its amyloid nucleation score is “inactive”.

Question: With FDVVWL as the substance, how does the amyloid nucleation score read?
Answer: The amyloid nucleation score was “inactive”.

Question: With FFLTLGYVVGYQRWSYILWR as the substance, how does the amyloid nucleation score read?
Answer: The amyloid nucleation score was “inactive”.

Question: For NLAYTMRGTELICTYVSILP, which amyloid nucleation score is on record?
Answer: Its amyloid nucleation score is “inactive”.

Question: Which amyloid nucleation score does the source give for SNGWFYFCFVSWWHSSFDGS here?
Answer: Its amyloid nucleation score is “inactive”.

Question: Which amyloid nucleation score does the source give for YRAIVSHNAMTPV here?
Answer: Its amyloid nucleation score is “inactive”.

Question: With TSMRKSACSWTLFSLR as the substance, how does the amyloid nucleation score read?
Answer: The amyloid nucleation score was “inactive”.

Question: With FASYYHTVDRADFDDLDPAN as the substance, how does the amyloid nucleation score read?
Answer: The amyloid nucleation score was “inactive”.

Question: With VYVSCRMWNFRKMMMPV as the substance, how does the amyloid nucleation score read?
Answer: Its amyloid nucleation score is “inactive”.

Question: Which amyloid nucleation score does the source give for RTWTSCDVICLGICLRSLAK here?
Answer: Its amyloid nucleation score is “inactive”.

Question: For RRFGAFCIVPFERIVLDGWE, which amyloid nucleation score is on record?
Answer: The amyloid nucleation score was “inactive”.

Question: For LNATKSDCHSLLI, which amyloid nucleation score is on record?
Answer: Its amyloid nucleation score is “inactive”.

Question: For CRVWEDDFLSNRSGLVRHLT, which amyloid nucleation score is on record?
Answer: The amyloid nucleation score was “inactive”.

Question: Which amyloid nucleation score does the source give for LFCIY here?
Answer: The amyloid nucleation score was “inactive”.

Question: With YIFRIHGPLPILHTRYPIRR as the substance, how does the amyloid nucleation score read?
Answer: Its amyloid nucleation score is “inactive”.

Question: For RELFTFGVFRYQASL, which amyloid nucleation score is on record?
Answer: Its amyloid nucleation score is 0.817 ± 0.22.

Question: Which amyloid nucleation score does the source give for VPWSLCDD here?
Answer: Its amyloid nucleation score is 0.508 ± 0.12.

Question: With ISNGVNPGVFDAVSWLDWAV as the substance, how does the amyloid nucleation score read?
Answer: The amyloid nucleation score was “inactive”.

Question: Which amyloid nucleation score does the source give for CLIFVWATIDYNYFCLS here?
Answer: Its amyloid nucleation score is 0.6 ± 0.16.

Question: For SDSFSGPVKEPRYWGSQ, which amyloid nucleation score is on record?
Answer: The amyloid nucleation score was “inactive”.

Question: With LVIVRWNAVYTYIGFDF as the substance, how does the amyloid nucleation score read?
Answer: The amyloid nucleation score was “inactive”.

Question: For YIVWCHVVWLADCR, which amyloid nucleation score is on record?
Answer: The amyloid nucleation score was “inactive”.

Question: Which amyloid nucleation score does the source give for YFRAFMFETS here?
Answer: Its amyloid nucleation score is “inactive”.

Question: With PNMSIPLLCLCDNISDFHRF as the substance, how does the amyloid nucleation score read?
Answer: Its amyloid nucleation score is 1.69 ± 0.12.

Question: For MALLLDILMNNNFISIKGFI, which amyloid nucleation score is on record?
Answer: Its amyloid nucleation score is “inactive”.

Question: For RVAHFY, which amyloid nucleation score is on record?
Answer: Its amyloid nucleation score is “inactive”.

Question: With VAMVSGIG as the substance, how does the amyloid nucleation score read?
Answer: The amyloid nucleation score was “inactive”.

Question: With TCSHVYQTYAVKAASKNIMI as the substance, how does the amyloid nucleation score read?
Answer: The amyloid nucleation score was “inactive”.

Question: Which amyloid nucleation score does the source give for LDMKPRQARTFFLNHGVLPA here?
Answer: The amyloid nucleation score was 0.313 ± 0.78.

Question: Which amyloid nucleation score does the source give for RMRSGSA here?
Answer: Its amyloid nucleation score is “inactive”.

Question: With YNQCWLTIDINFRYLLA as the substance, how does the amyloid nucleation score read?
Answer: The amyloid nucleation score was 1.4 ± 0.15.

Question: With YQCSASFYRTNVGPSTGHQL as the substance, how does the amyloid nucleation score read?
Answer: Its amyloid nucleation score is 1.13 ± 0.11.

Question: For MWFTLKMYTMRCCFEVTLRK, which amyloid nucleation score is on record?
Answer: The amyloid nucleation score was “inactive”.

Question: Which amyloid nucleation score does the source give for FCCINKLDGLGVWETYCSYS here?
Answer: The amyloid nucleation score was “inactive”.

Question: With FNDVLMAVITLSVIDTLMWT as the substance, how does the amyloid nucleation score read?
Answer: The amyloid nucleation score was “inactive”.

Question: Which amyloid nucleation score does the source give for CWNLISWSKEYA here?
Answer: The amyloid nucleation score was “inactive”.

Question: Which amyloid nucleation score does the source give for SVYLT here?
Answer: The amyloid nucleation score was “inactive”.

Question: Which amyloid nucleation score does the source give for RWNIS here?
Answer: Its amyloid nucleation score is 0.28 ± 0.22.

Question: Which amyloid nucleation score does the source give for DMLHLWYLSVG here?
Answer: The amyloid nucleation score was “inactive”.

Question: With HSDCDRTVTSGVELDSYGWT as the substance, how does the amyloid nucleation score read?
Answer: The amyloid nucleation score was “inactive”.

Question: Which amyloid nucleation score does the source give for NLRSS here?
Answer: The amyloid nucleation score was “inactive”.

Question: For FRSAN, which amyloid nucleation score is on record?
Answer: Its amyloid nucleation score is “inactive”.
